In data set [1] the target is T1, Rv0078 (Mycobacterium tuberculosis, UniProt O53623 1-201).
T1 sequence: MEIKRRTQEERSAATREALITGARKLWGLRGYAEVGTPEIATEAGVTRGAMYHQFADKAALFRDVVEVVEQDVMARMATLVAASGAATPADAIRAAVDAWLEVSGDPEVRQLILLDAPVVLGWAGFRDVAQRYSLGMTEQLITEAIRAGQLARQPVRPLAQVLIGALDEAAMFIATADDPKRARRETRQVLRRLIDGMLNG
Description: ITC; […], room temperature 30 min; […], buffer not stated. The settings on record: protein: recombinant; tags: C-terminal His6; chain copies: 4. A general note: Isothermal titration calorimetry measures the heat released or taken up as one component is titrated into another.

Data set [2] concerns the molecule itself. Kind of data set: crystal structure; DNA-free Rv0078, C2 space group crystals, sitting-drop vapor diffusion at 20°C, 0.1 M sodium cacodylate pH 6.4, 1.3 M lithium sulfate; 1.85 Å.
Data set [3] concerns the target T1, Rv0078. Kind of data set: crystal structure; […], room temperature 30 min; […], buffer not stated. The settings on record: protein: recombinant; tags: C-terminal His6; chain copies: 4; blunt.

B1: +13/-8 DNA probe (ITC) (dsDNA)
DNA 1: TTACAAGCAGACTGCCGGTAA
DNA 2: TTACCGGCAGTCTGCTTGTAA
In general, Kd refers to the concentration at which binding is half-saturated. Turning to B1, in the data set with Rv0078 [1], the Kd came to 357 nM.

B2: Rv0078-His6 (TetR-like transcriptional repressor Rv0078) (natural protein)
chain: MEIKRRTQEERSAATREALITGARKLWGLRGYAEVGTPEIATEAGVTRGAMYHQFADKAALFRDVVEVVEQDVMARMATLVAASGAATPADAIRAAVDAWLEVSGDPEVRQLILLDAPVVLGWAGFRDVAQRYSLGMTEQLITEAIRAGQLARQPVRPLAQVLIGALDEAAMFIATADDPKRARRETRQVLRRLIDGMLNG
notes: also called LoaR; EthR2; not shown: His6, C-terminal, kept
Usually stoichiometry N stands for a count of units in the complex or per binding partner. In the case of B2, the “stoichiometry N” value in data set [2] worked out at 2.

B3: 23-mer operator duplex (dsDNA)
DNA 1: TTTACAAGCAGACTGCCGGTAAC
DNA 2: GTTACCGGCAGTCTGCTTGTAAA
Regarding B3, the binding result in the data set with Rv0078 [3] was “binds”.

Source of the values: article PMC6016246, “Cytokinin Signaling in Mycobacterium tuberculosis” (mBio, 2018).
